From patent US20220372093A1 (CUE BIOPHARMA, published 2022)

B1: D32A (receptor)
TβRII polypeptide: IPPHVQKSVNNDMIVTDNNGAVKFPQLCKFCAVRFSTCDNQKSCMSNCSITSICEKPQEVCVAVWRKNDENITLETVCHDPKLPYHDFILEDAASPKCIMKEKKKPGETFFMCSCSSDECNDNIIFSEEYNTSNPDLLLVIFQ
notes: also called TβRII D32A
B2: I50A (receptor)
TβRII polypeptide: IPPHVQKSVNNDMIVTDNNGAVKFPQLCKFCDVRFSTCDNQKSCMSNCSATSICEKPQEVCVAVWRKNDENITLETVCHDPKLPYHDFILEDAASPKCIMKEKKKPGETFFMCSCSSDECNDNIIFSEEYNTSNPDLLLVIFQ
notes: also called TβRII I50A
B3: T51A (receptor)
TβRII polypeptide: IPPHVQKSVNNDMIVTDNNGAVKFPQLCKFCDVRFSTCDNQKSCMSNCSIASICEKPQEVCVAVWRKNDENITLETVCHDPKLPYHDFILEDAASPKCIMKEKKKPGETFFMCSCSSDECNDNIIFSEEYNTSNPDLLLVIFQ
notes: also called TβRII T51A
B4: D118A (receptor)
TβRII polypeptide: IPPHVQKSVNNDMIVTDNNGAVKFPQLCKFCDVRFSTCDNQKSCMSNCSITSICEKPQEVCVAVWRKNDENITLETVCHDPKLPYHDFILEDAASPKCIMKEKKKPGETFFMCSCSSAECNDNIIFSEEYNTSNPDLLLVIFQ
notes: also called TβRII D118A
B5: E119Q (receptor)
TβRII polypeptide: IPPHVQKSVNNDMIVTDNNGAVKFPQLCKFCDVRFSTCDNQKSCMSNCSITSICEKPQEVCVAVWRKNDENITLETVCHDPKLPYHDFILEDAASPKCIMKEKKKPGETFFMCSCSSDQCNDNIIFSEEYNTSNPDLLLVIFQ
notes: also called TβRII E119Q
B6: S49A (receptor)
TβRII polypeptide: IPPHVQKSVNNDMIVTDNNGAVKFPQLCKFCDVRFSTCDNQKSCMSNCAITSICEKPQEVCVAVWRKNDENITLETVCHDPKLPYHDFILEDAASPKCIMKEKKKPGETFFMCSCSSDECNDNIIFSEEYNTSNPDLLLVIFQ
notes: also called TβRII S49A
B7: S52L (receptor)
TβRII polypeptide: IPPHVQKSVNNDMIVTDNNGAVKFPQLCKFCDVRFSTCDNQKSCMSNCSITLICEKPQEVCVAVWRKNDENITLETVCHDPKLPYHDFILEDAASPKCIMKEKKKPGETFFMCSCSSDECNDNIIFSEEYNTSNPDLLLVIFQ
notes: also called TβRII S52L
B8: L27A (receptor)
TβRII polypeptide: IPPHVQKSVNNDMIVTDNNGAVKFPQACKFCDVRFSTCDNQKSCMSNCSITSICEKPQEVCVAVWRKNDENITLETVCHDPKLPYHDFILEDAASPKCIMKEKKKPGETFFMCSCSSDECNDNIIFSEEYNTSNPDLLLVIFQ
notes: also called TβRII L27A
B9: E119A (receptor)
TβRII polypeptide: IPPHVQKSVNNDMIVTDNNGAVKFPQLCKFCDVRFSTCDNQKSCMSNCSITSICEKPQEVCVAVWRKNDENITLETVCHDPKLPYHDFILEDAASPKCIMKEKKKPGETFFMCSCSSDACNDNIIFSEEYNTSNPDLLLVIFQ
notes: also called TβRII E119A
B10: D32N (receptor)
TβRII polypeptide: IPPHVQKSVNNDMIVTDNNGAVKFPQLCKFCNVRFSTCDNQKSCMSNCSITSICEKPQEVCVAVWRKNDENITLETVCHDPKLPYHDFILEDAASPKCIMKEKKKPGETFFMCSCSSDECNDNIIFSEEYNTSNPDLLLVIFQ
notes: also called TβRII D32N
B11: F30A (receptor)
TβRII polypeptide: IPPHVQKSVNNDMIVTDNNGAVKFPQLCKACDVRFSTCDNQKSCMSNCSITSICEKPQEVCVAVWRKNDENITLETVCHDPKLPYHDFILEDAASPKCIMKEKKKPGETFFMCSCSSDECNDNIIFSEEYNTSNPDLLLVIFQ
notes: also called TβRII F30A
B12: S52A (receptor)
TβRII polypeptide: IPPHVQKSVNNDMIVTDNNGAVKFPQLCKFCDVRFSTCDNQKSCMSNCSITAICEKPQEVCVAVWRKNDENITLETVCHDPKLPYHDFILEDAASPKCIMKEKKKPGETFFMCSCSSDECNDNIIFSEEYNTSNPDLLLVIFQ
notes: also called TβRII S52A
B13: I53A (receptor)
TβRII polypeptide: IPPHVQKSVNNDMIVTDNNGAVKFPQLCKFCDVRFSTCDNQKSCMSNCSITSACEKPQEVCVAVWRKNDENITLETVCHDPKLPYHDFILEDAASPKCIMKEKKKPGETFFMCSCSSDECNDNIIFSEEYNTSNPDLLLVIFQ
notes: also called TβRII I53A
B14: V77A (receptor)
TβRII polypeptide: IPPHVQKSVNNDMIVTDNNGAVKFPQLCKFCDVRFSTCDNQKSCMSNCSITSICEKPQEVCVAVWRKNDENITLETACHDPKLPYHDFILEDAASPKCIMKEKKKPGETFFMCSCSSDECNDNIIFSEEYNTSNPDLLLVIFQ
notes: also called TβRII V77A
B15: E55A (receptor)
TβRII polypeptide: IPPHVQKSVNNDMIVTDNNGAVKFPQLCKFCDVRFSTCDNQKSCMSNCSITSICAKPQEVCVAVWRKNDENITLETVCHDPKLPYHDFILEDAASPKCIMKEKKKPGETFFMCSCSSDECNDNIIFSEEYNTSNPDLLLVIFQ
notes: also called TβRII E55A
B16: Δ14 (receptor)
TβRII polypeptide: VTDNNGAVKFPQLCKFCDVRFSTCDNQKSCMSNCSITSICEKPQEVCVAVWRKNDENITLETVCHDPKLPYHDFILEDAASPKCIMKEKKKPGETFFMCSCSSDECNDNIIFSEEYNTSNPD
notes: also called TβRII Δ14 (N-terminal aas 1-14 deleted)

Tests used:
TGF-β1 = target: T1, TGF-β1 (Homo sapiens, UniProt P01137); test: not stated on the sheet; drawn table of Kd of TβRII variants (paragraph 345 cites Groppe et al. 2008 and De Crescenzo et al. 2006)
T1 construct: also called transforming growth factor beta 1

TGF-β3 = target: T2, TGF-β3 (Homo sapiens, UniProt P10600); test: as above
T2 construct: also called transforming growth factor beta 3
T2 sequence (TGF-β3 polypeptide, looked up): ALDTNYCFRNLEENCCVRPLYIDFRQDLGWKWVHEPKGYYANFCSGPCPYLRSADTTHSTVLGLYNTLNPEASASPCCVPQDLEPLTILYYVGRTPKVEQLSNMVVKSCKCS

T1 sequence (P01137 279-390 limits assumed): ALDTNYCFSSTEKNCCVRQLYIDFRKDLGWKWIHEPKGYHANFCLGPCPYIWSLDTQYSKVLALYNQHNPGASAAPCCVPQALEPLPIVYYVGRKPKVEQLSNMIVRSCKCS

Row | Binder | Kd (TGF-β1) [nM] | Kd (TGF-β3) [nM]
1 | B1 | 3520 | 
2 | B2 | 7960 | 
3 | B3 | 2970 | 
4 | B4 | 1510 | 
5 | B5 | 5950 | 
6 | B6 | 790 | 
7 | B7 | 154000 | 
8 | B8 | 7970 | 
9 | B9 | 3350 | 
10 | B10 | 5900 | 
11 | B11 | 44000 | 
12 | B12 | 600 | 
13 | B13 | 2490 | 
14 | B14 | 690 | 
15 | B15 | 2990 | 
16 | B16 | 320 | 680
